Experimental data reported in IntAct's records for PubMed 29039417.

B1: BBSome complex member BBS4 (Homo sapiens), Q96RK4 (parent)
chain: MAEERVATRTQFPVSTESQKPRQKKAPEFPILEKQNWLIHLHYIRKDYEACKAVIKEQLQETQGLCEYAIYVQALIFRLEGNIQESLELFQTCAVLSPQSADNLKQVARSLFLLGKHKAAIEVYNEAAKLNQKDWEISHNLGVCYIYLKQFNKAQDQLHNALNLNRHDLTYIMLGKIHLLEGDLDKAIEVYKKAVEFSPENTELLTTLGLLYLQLGIYQKAFEHLGNALTYDPTNYKAILAAGSMMQTHGDFDVALTKYRVVACAVPESPPLWNNIGMCFFGKKKYVAAISCLKRANYLAPFDWKILYNLGLVHLTMQQYASAFHFLSAAINFQPKMGELYMLLAVALTNLEDIENAKRAYAEAVHLDKCNPLVNLNYAVLLYNQGEKKNALAQYQEMEKKVSLLKDNSSLEFDSEMVEMAQKLGAALQVGEALVWTKPVKDPKSKHQTTSTSKPASFQQPLGSNQALGQAMSSAAAYRTLPSGAGGTSQFTKPPSLPLEPEPAVESSPTETSEQIREK
partner: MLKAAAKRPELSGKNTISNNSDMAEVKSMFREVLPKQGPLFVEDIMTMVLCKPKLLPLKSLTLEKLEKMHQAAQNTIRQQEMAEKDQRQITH

Variants of: B1
Conditions: with bbip1_human BBIP1, A8MTZ0

| Variant | effect of a mutation on the interaction |
| --- | --- |
| Q394L | disrupting interaction strength |
| Q394R | disrupting interaction strength |
| Q394K | with no effect |
| Q394A | with no effect |
| Q394E | with no effect |
| E397A | with no effect |
| E397K | with no effect |
| E399A | with no effect |
| E399K | with no effect |
| M398E | with no effect |
| M398A | with no effect |
| M398K | with no effect |
| Q396K | with no effect |
| Q396A | with no effect |
| Q396E | with no effect |
| K401E | disrupting interaction strength |
| K401A | with no effect |
| Y395A | with no effect |

| Variant | effect of a mutation on the interaction |
| --- | --- |
| Y395K | with no effect |
| Y395H | disrupting interaction strength |
| Y395E | with no effect |
| K389E | with no effect |
| A391V | disrupting interaction strength |
| A391E | with no effect |
| A391T | disrupting interaction strength |
| A391K | with no effect |
| L392K | with no effect |
| L392A | with no effect |
| L392P | disrupting interaction strength |
| L392E | with no effect |
| N390E | with no effect |
| N390L | disrupting interaction strength |
| N390A | with no effect |
| N390K | with no effect |
| K400E | with no effect |
| K400A | with no effect |

Further lines, results first:

| effect of a mutation on the interaction | Variant |
| --- | --- |
| with no effect | F413E |
| with no effect | F413A |
| with no effect | F413K |
| with no effect | V418E |
| with no effect | V418K |
| with no effect | V418A |
| with no effect | M420E |
| with no effect | M420A |
| with no effect | S403E |
| with no effect | S403K |
| with no effect | S403A |
| with no effect | K406E |
| with no effect | K406A |
| with no effect | L405E |
| with no effect | L405K |
| with no effect | L405A |
| with no effect | L404E |
| with no effect | L404A |
| with no effect | L404K |
| with no effect | E416K |
| with no effect | E416A |
| with no effect | S409A |
| with no effect | S409E |
| with no effect | S409K |
| with no effect | E419K |
| with no effect | E419A |
| disrupting interaction strength | K401V |

| effect of a mutation on the interaction | Variant |
| --- | --- |
| with no effect | D414A |
| with no effect | D414K |
| with no effect | D414E |
| with no effect | N408E |
| with no effect | N408A |
| with no effect | N408K |
| with no effect | D407K |
| with no effect | D407E |
| with no effect | D407A |
| with no effect | S410E |
| with no effect | S410A |
| with no effect | S410K |
| with no effect | M417E |
| with no effect | M417A |
| with no effect | M417K |
| with no effect | L411K |
| with no effect | L411A |
| with no effect | L411E |
| with no effect | E412K |
| with no effect | E412A |
| with no effect | S415A |
| with no effect | S415E |
| with no effect | S415K |
| with no effect | V402E |
| with no effect | V402A |
| with no effect | V402K |
